The values below come from publication PMC5662687 (2017).

This test addresses LFA-1 I domain I domain (Homo sapiens, UniProt P20701). Nature of the test: SPR. For orientation: SPR reads the build-up and loss of mass on a sensor chip optically.

B1: ICAM-1 (protein)
chain: QTSVSPSKVILPRGGSVLVTCSTSCDQPKLLGIETPLPKKELLLPGNNRKVYELSNVQEDSQPMCYSNCPDGQSTAKTFLTVYWTPERVELAPLPSWQPVGKNLTLRCQVEGGAPRANLTVVLLRGEKELKREPAVGEPAEVTTTVLVRRDHHGANFSCRTELDLRPQGLELFENTSAPYQLQTFVLPATPPQLVSPRVLEVDTQGTVVCSLDGLFPVSEAQVHLALGDQRLNPTVTYGNDSFSAKASVSVTAEDEGTQRLTCAVILGNQSQETLQTVTIYSFPAPNVILTKPEVSEGTEVTVKCEAHPRAKVTLNGVPAQPLGPRAQLLLKATPEDNGRSFSCSATLEVAGQLIHKNQTRELRVLYGPRLDERDCPGNWTWPENSQQTPMCQAWGNPLPELKCLKDGTFPLPIGESVTVTRDLEGTYLCRARSTQGEVTRKVTVNVLSPRYE
Consider B1, for which the dissociation constant (Kd) (as a rule, the constant that tells how readily two partners part at equilibrium) stood at 1500 µM.
